From IntAct's records for PubMed 20959446 come the findings set out here.

Sequences and labels used below:
B1: CMRF35-like molecule 6 (Homo sapiens), Q08708 (parent)
chain: MTARAWASWRSSALLLLLVPGYFPLSHPMTVAGPVGGSLSVQCRYEKEHRTLNKFWCRPPQILRCDKIVETKGSAGKRNGRVSIRDSPANLSFTVTLENLTEEDAGTYWCGVDTPWLRDFHDPIVEVEVSVFPAGTTTASSPQSSMGTSGPPTKLPVHTWPSVTRKDSPEPSPHPGSLFSNVRFLLLVLLELPLLLSMLGAVLWVNRPQRSSRSRQNWPKGENQ
partner: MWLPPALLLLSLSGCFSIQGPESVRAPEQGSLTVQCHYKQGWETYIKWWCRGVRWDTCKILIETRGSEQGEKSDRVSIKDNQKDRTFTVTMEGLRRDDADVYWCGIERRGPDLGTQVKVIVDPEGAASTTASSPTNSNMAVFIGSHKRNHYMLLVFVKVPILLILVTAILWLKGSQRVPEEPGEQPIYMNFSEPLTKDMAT
B2: CMRF35-like molecule 6 (Homo sapiens), Q08708 (parent)
chain: B1 chain
B3: CMRF35-like molecule 7 (Homo sapiens), A8K4G0 (parent)
chain: B1 partner
partner: B1 chain

The variants in the first assay derive from B1. As to conditions: with clm7_human CD300LB, A8K4G0.
With MTARAWASWRSSALLLLLVPGYFPLSHPMTVAGPVGGSLSVQCRYEKEHRTLNKFWCRPPQILRCDKIVETKGSAGKRNGRVSIRDSPANLSFTVTLENLTEEDAGTYWCGVDTPWLRDFHDPIVEVEVSVFPAGTTTASSPQSSMGTSGPPTKLPVHTWPSVTRKDSPEPSPHPGSLFSNVRFLLLVLLVLPLLLSMLGAVLWVNRPQRSSRSRQNWPKGENQ [E191V], the “effect of a mutation on the interaction” value is “with no effect”.

The variants in another assay derive from B2. The note with it: with fcerg_human FCER1G.
Consider MTARAWASWRSSALLLLLVPGYFPLSHPMTVAGPVGGSLSVQCRYEKEHRTLNKFWCRPPQILRCDKIVETKGSAGKRNGRVSIRDSPANLSFTVTLENLTEEDAGTYWCGVDTPWLRDFHDPIVEVEVSVFPAGTTTASSPQSSMGTSGPPTKLPVHTWPSVTRKDSPEPSPHPGSLFSNVRFLLLVLLVLPLLLSMLGAVLWVNRPQRSSRSRQNWPKGENQ [E191V], for which the “effect of a mutation on the interaction” value is “with no effect”.

In the next assay the parent is B3. The note with it: with clm6_human CD300C, Q08708.
Turning to MWLPPALLLLSLSGCFSIQGPESVRAPEQGSLTVQCHYKQGWETYIKWWGRGVRWDTCKILIETRGSEQGEKSDRVSIKDNQKDRTFTVTMEGLRRDDADVYWCGIERRGPDLGTQVKVIVDPEGAASTTASSPTNSNMAVFIGSHKRNHYMLLVFVKVPILLILVTAILWLKGSQRVPEEPGEQPIYMNFSEPLTKDMAT [C50G], the “effect of a mutation on the interaction” value is reported as “with no effect”.

MWLPPALLLLSLSGCFSIQGPESVRAPEQGSLTVQCHYKQGWETYIKWWCRGVRWDTCKILIETRGSEQGEKSDRVSIKDNQKDRTFTVTMEGLRRDDADVYWCGIERRGPMLGTQVKVIVDPEGAASTTASSPTNSNMAVFIGSHKRNHYMLLVFVKVPILLILVTAILWLKGSQRVPEEPGEQPIYMNFSEPLTKDMAT [D112M]: the “effect of a mutation on the interaction” value was “with no effect”.

With MWLPPALLLLSLSGCFSIQGPESVRAPEQGSLTVQCHYKQGWETYIKWWCRGVRGDTCKILIETRGSEQGEKSDRVSIKDNQKDRTFTVTMEGLRRDDADVYWCGIERRGPDLGTQVKVIVDPEGAASTTASSPTNSNMAVFIGSHKRNHYMLLVFVKVPILLILVTAILWLKGSQRVPEEPGEQPIYMNFSEPLTKDMAT [W55G], the “effect of a mutation on the interaction” value is listed as “with no effect”.

With MWLPPALLLLSLSGCFSIQGPESVRAPEQGSLTVQCHYKQGWETYIKWWCRGVRWDTCKILISTRGSEQGEKSDRVSIKDNQKDRTFTVTMEGLRRDDADVYWCGIERRGPDLGTQVKVIVDPEGAASTTASSPTNSNMAVFIGSHKRNHYMLLVFVKVPILLILVTAILWLKGSQRVPEEPGEQPIYMNFSEPLTKDMAT [E63S], the “effect of a mutation on the interaction” value is recorded as “with no effect”.

For the variant MWLPPALLLLSLSGCFSIQGPESVRAPEQGSLTVQCHYKQGWETYIKWWCRGVRWDTCKILIETRGSEQGEKSDRVSIKDNQKDRTFTVTMEGLRRDDADVYWCGIERRGPDLGTQVKVIVDPEGAASTTASSPTNSNMAVFIGSHKRNHYMLLVFVLVPILLILVTAILWLKGSQRVPEEPGEQPIYMNFSEPLTKDMAT [K158L], the “effect of a mutation on the interaction” value is “with no effect”.

Turning to MWLPPALLLLSLSGCFSIQGPESVRAPEQGSLTVQCHYKQGWETYIKWWCRGVRWDTCKILIETRGSEQGEKSDRVSIKDNQKDRTFTVTMEGLRRDDADVYGCGIERRGPDLGTQVKVIVDPEGAASTTASSPTNSNMAVFIGSHKRNHYMLLVFVKVPILLILVTAILWLKGSQRVPEEPGEQPIYMNFSEPLTKDMAT [W103G], the “effect of a mutation on the interaction” value is recorded as “with no effect”.
